# Assay: soluble on expression in E. coli; label from the status in PepcDB or PDB records
row,Sequence,soluble on expression in E. coli
1,MNNNEIYVSLDIGTSNVRIIIGEITDGSINIIGVGNAPSEGIKKGSIVDIDETVRSIRRAVEQAERMVGLSIRQVIVGVNGNHVQLQPCHGVVAVSSPDREIGDEDIARVIDAAQVVSIPPEREIIDVIPKQFIVDGLDEINDPRGMIGVRLEMEGTIITGSKTLLHNLLRCVERAGLEVADICLQALAAGSVAISKDEKSLGVCLIDIGGGSMTISCFEQGSLVDTSVIPVGGDHVTNDIAVGLRISTEEAIKIKHTHGHAYIDEASEEDRFEVKAIGSTEPEAFSQFELAHIIEPRMEEMFELINRELRRLGQHDFPGGFVLTGGSVMMPGVLELAKETLGRNVRVAIPDYIGVREPQYTTGVGLIQFAYKNVKIQGKEVAAAVAEAGVEQEQRPKKEKERSRTNEGPGVKSKVKNWFKVFLE,not soluble
2,MNNRDQLFKAPPFENHSPLTWYQAASQLPNFIRDDAQAAAIEHLDRLWTELMMFKRKRNRFLGRSLRSPQVPKGLYFYGGVGRGKSFLMDAFFGCLPYRRKRRVHFHAFMAEIHRRLKALKSESNPLKSVAAEITKETRVLCFDEFHVSDIADAMILGRLLENLLNEGVVLVATSNYAPSELYPQGQNRSGFLPTIALIESSLTVLNVDGGEDYRLRTLRPAEIFFTPANEENEAKLAKLFKEMTGITDLNPGISTIHGREIPHKAESGRTIWFDFRALCFSPRSQSDYLYLAEHYEMVFISGLEQLSPQEKAEARRLTWLIDVLYDFRVKLCATGAVDVNHIYTEGDFAEEFTRTASRMVEMQSEVYLEQPHLTLSPKASGGLEHHHHHH,soluble
3,MNNSREDQWLQHYEQQNIQEITPCFNAINIASSSGSSLGDGGAAAHEAAGRRSRASRRAIPTTLLNANPSNFRALVQKFTGRSAGGESNRRKGPVTLDFGSPTTISKEAIFPVSSDRSNNNLDHVVNQHVSNEQRHVTWSGTESMMSYQLGEETNSAVYSSGYDDQDLPREYSGNSSYDESLDHMDYYQDFHRETATLEEFMMRDLDL,soluble
4,MNPLLQDYARILLEWNQTHNLSGAKNLSELEPQITDALKPLEFIKDFKSCLDIGSGAGLPAIPLALEKPEVKFILLEPRIKRAAFLNYLKSVLPLKNIEIIKKRLEDYQNLLQVDLITSRAVASSSFLIEKSQRFLKDKGYFLFYKGEQLKDEIACKDTECFMHQKRVYFYKSKESLCLEHHHHHH,soluble
5,MNPNFLDFEQPIADLQAKIEELRLVGNDNALNISDEISRLQDKSKALTENIFGNLSSWQIAQLARHPKRPYTLDYIGYLFSDFEELHGDRHFADDPAIVGGVARLDGSPVMVIGHQKGREVREKVRRNFGMPRPEGYRKACRLMEMAERFKMPILTFIDTPGAYPGIDAEERGQSEAIAWNLRVMARLKTPIIATVIGEGGSGGALAIGVCDQLNMLQYSTYSVISPEGCASILWKTAEKAPEAAEAMGITAERLKGLGIVDKVIDEPLGGAHRDPASMAESIRGELLAQLKMLQGLEMGELLERRYDRLMSYGAP,not soluble
6,MNQEVTAPKEMNQGASNDLLTTSLKNVTRLNTNDPSQMAVLTSQTIWAATHKENQPGAVILVPASEWQLGIASADFIHHPNNGPILFIEKEKIPEMTLKEIKRLNPIGTKDGTQIMVMGDVGTSALEQLKGYKVKQIKETDPAIFAKDVDKEYADITGSYPNSVIIGSSAEEGRLYTTPAVNWISHMPEPLLYTEKNKVPEATIEALKMRKDKANIYVLGPEKIVSKEVEKELSKYGKVTRISGETPTENSIAFAKFKDEKTKFGWGFTKPGHGLSFVSSKTPDLAVAGAPFSHMGKHAPVVLLEEGKASQTVYDFLASIQPKFKDDPTLGPYNHGFLLGNTSDISFETQGILDERLEIVQESGQGHGGH,not soluble
7,MNQNKSNVPVSVAEEPDELSYYRLTLLSFLRESHPDLADDESFVATRSEQAAEAFSAAVRSGLTYDDAAQQANALLFQGLHFSPLDTLVTVLWNEFAAEVPEGSARSVALQLLPECRKVFAGYTLSDDFMFSPEFGQLYDELTGTVVIWLEENGL,not soluble
8,MNREEMTLLGFEIVAYAGDARSKLLEALKAAENGDFAKADSLVVEAGSCIAEAHSSQTGMLAREASGEELPYSVTMMHGQLHLMTTILLKDVIHHLIELYKRGAK,soluble
9,MNREKLMKMANTVRTGGKGTVRRKKKAVHKTTTTDDKRLQSTLKRVGVNSIPAIEEVNIFKDDVVIQFINPKVQASIAANTWVVSGTPQTKKLQDILPQIISQLGPDNLDNLKKLAEQFQKQAPGAGDVPATIQEEDDDDDVPDLVVGETFETPATEEAPKAAAS,soluble
10,MNRLKNMSKYSDAKELASLTLGKKTEYANQYDPSLLQPVPRSLNRNDLHLSATLPFQGCDIWTLYELSWLNQKGLPQVAIGEVSIPATSANLIESKSFKLYLNSYNQTRFASWDEVQTRLVHDLSACAGETVTVNVKSLNEYTAEPIVTMQGECIDDQDIEIANYEFDDALLQGAAQGEEVSEVLHSHLLKSNCLITNQPDWGSVEIAYHGAKMNREALLRYLVSFREHNEFHEQCVERIFTDIMRYCQPQSLTVYARYTRRGGLDINPFRSSHQSAPNHNQRMARQ,soluble
11,MNRLLNEKVEEFKKGVLKAGWFIEKMFRNSISSLVERNESLAREVIADEEVVDQMEVEIQEKAMEVLGLFSPIGKPLLTVTAGIRVAELIENIADKCHDIAKNVLELMEEPPLKPLEDIPAMANQTSEMLKFALRMFADVNVEKSFEVCRMDSKVDDLYEKVREELLLYMMESPKYVKRALLLLEIAGNIEIIADYATNIVEVSVYMVQGEAYKCYHDELLLFKKSGGVLFESSD,soluble
12,MNRQLLLDVLPAPAPALNNYIAGPNGQALAAAHALTAGRAIYLWGPAGCGRTHLLRGLSARPEAIYIDAARAAQSLRELAEADSTAPMPRLVAVDDVHRMDDARQAGLFALYNRWRESAATGRAFALAVSGDRAPMSLPLREDLRTRLGWDLVFRLDPLSDADKLAALTAQAAERGLQLAPEVINWMLTHHERDIRKLAALLDALDRYSLATGRPITIPLLRAMLADPHSQATLEHHHHHH,soluble
13,MNRQPIVQLSNLSWTFREGETRRQVLDHITFDFEPGEFVALLGQSGSGKSTLLNLISGIEKPTTGDVTINGFAITQKTERDRTLFRRDQIGIVFQFFNLIPTLTVLENITLPQELAGVSQRKAAVVARDLLEKVGMADRERTFPDKLSGGEQQRVAISRALAHNPMLVLADEPTGNLDSDTGDKVLDVLLDLTRQAGKTLIMATHSPSMTQHADRVVNLQGGRLIPAVNRENQTDQPASTILLPTSYE,not soluble
14,MNRSNQDITQPTAIIAVVGVGAEQGIGAAVCRRFAQEKFKVYVAGRTLNKVEKVAAAIHRQGGQAVAYVLDAENEQQLQTLFDHLNDQPEALAAVIHNVGGNIPSIFLQSSLKFFSQMWRSTFLSSVLVAQRSLSIFQKQQQGTLIFTGASASLRGKPFFAAFSMGKSALRSYALNLAELYRSQNIHVAHVMVDGMVDGDRVNKALWGLGRLARLTRGTGGLNIDAIAENYWMLYQQNVDLWTHELDLRPYQEKF,not soluble
15,MNRVKYTIKCTILQGKIKERLIKNIHLNEMNLRNWSTLKWSTRV,not soluble
16,MNSFKTRDVQVAVEAVEKEKIEFIPLRRTLRYLIVGIDPGATTAIAALDLRGELVDMKSRKGWSPAEVIEFISSLGKPVVVSTDKSSPPEFVSKIRASFNAVLYTPKEDMSVEKKRILTSKYSTSNDLEHHHHHH,not soluble
17,MNSLFVDNTVFITRLKAGHIGRLVQALFEEWHGFEPWSSVDKIHAYYGRCLKDDELPLAFAAVDDSGILLGSAAVKRHDMESFPRYEYWLGDVFVLPEYRGKGIGRRLVAHCIGAARSLGIKFLYLYTPDVQIFYESFGWVVVGRHFHNGEWVTVMRLDVDKV,not soluble
18,MNSNSLSRFTSIVRTTSIRGFHDRSSVPRVVDDREKSSAKYNDAGYTFRYHQQGVDPLPRIPDCKVPVARPAYKVRDQWSDEAARFGQNDYIDLLGDGSVHPAQLQYHTPTWLRGFPGQHKANELIKLIHYRNLYDAKLKQNSPKRWHELRKRIKYLMMQHNYNKQDEIGRERNLGLWEEEPDYTYKDKSRRSFKDEIH,not soluble
19,MNSPFAAETLLFERSRPRPEALRVIYGFPNTYSVGITSLGYQLVWAQLASRADVAVSRLFTDVQEPLPRDPELVGFSFSWELDYGNLLVLLEQLGIPIWQRDRHDCHPLVFGGGPVLTANPEPFADFFDVILLGDAEPLLDPFLTTMAQVRTAARSQRLEALAHVPGIYVPSLYHVSYSHPTGPIQRIEPIKASVPPTVTKQVHRGHTLAASTVVTPLAAWENIYMVEVVRSCPELCRFCLASYLTLPFRTPSLETLIPAIERGLAVTDRLGLLGASITQHPEFPALIEHLGQPQFDHVRVSLASVRTNTVTESLAQLLSQRGSQSLTIAIETGSERLRQVINKKLETEEILAAASHAQAGGLKGLKFYGMVGLPTETDADVAATVDLFCQLKKTAPRLRLTLGCSTFVPKAHTPFQWWGVQPVAEKRLKFLKKELAKLGIEFRPESYNDSLIQALISRGDRRLAPLLEQVRHYGTSLGSYRRAFKERQGQLPDFEAYVNANWPEETVLPWQHLQSGLPTKTLENHLKRAIALEHHHHHH,not soluble
20,MNSSILLEVFKNAFSSIAEEMGLVLQRTAFSPNIKERRDFSCAVFDKEGNLVAQAAHIPVHLGSMPLSVKEAIKAFKGEFEEGDMVVLNDPYMGGTHLPDITLVAPFFYKGELLFFLANRAHHADVGGATPGSMPLSTSIFQEGFIIPPLKLMKRGELNEDFMKVFLRNVRTPEEREGDFKAQIMANITGIKRLRELIEREGIEKVLFFSKELMNYSERIIRERIKALPEGEYEFEDYMEDDGYGRKDVKIHLKLKVEKEKLIFDFSKSDDQTRGGINAVRAITLSAVYYAVISLLGSDIPVNEGCFRPLEVITRKGSVVDAEFPAGVAGGNVETSQRIVDVVLGAFSKAIPEKVPAASQGTMNHVTIGGINPENGEPFTYYETIGGGMGASAKGDGESAVHSHMTNTLNTPIEALEHYYPILVTEYSIRKGSGGEGMHRGGDGIVREYEFLTDVEVTVLSERRRLAPYGLFGGKPGMPGINLIKTEEGEKEMPSKFSVYLKKGDRLRVETPGGGGYMKEE,not soluble
21,MNTQSPPSPHDPHGAAALPFRLWTAEERRASLDTALREWRDGEDVWVYGYGSLIWRPDFDFVERRLATLHGHHRALCLWSRVNRGTPECPGLVFGLDRGGSCRGVVYRLAGRQVPDYFPALWDREMSTGAYLPRWLRCATEHGPVNALVFIMNRANPAYIRALPEPELLAIVRRASGRYGPCTEYVVQTAQALRQAGIRDARLEQIARQLEADVHPLGVLEHHHHHH,not soluble
22,MNTREVELRGHIIDSLILPRALDIIMDMGGDFQILEIDIGKRKSDPSHARILVEAETPSLLNQILDELGEIGASIAEIKEAELRRAPMDRVLPDDFYSTTNHQTFIYHGGEWVEVEGIEMDCMIVVDPESRTARCKPIREIKKGDLVVVGREGIKVVPPERPRGKQGVFEFMGSEVSSEKPLVTTIKKIASEITEIKKRGGRIGLVGGPAIVHTGSAPVIAEMIRLGFIDVLFAGNALATHDIECALYGTSLGVDIDRGEAVSRGHRHHINAINEINRAGSIRDAVEQGVLTSGIMYECVKNDVPFVLAGSIRDDGPLPDVITDVMEAQNEMRKYVQDLDMVIMIATMLHSIATGNILPSRVKTICVDINPATVTKLSDRGSSQAVSVVTDVGAFIPILLHEIKKMNGLGDLEHHHHHH,soluble
23,MNTRSSLSEEQREQLVGLCEQDLDFTTTASRIGGRHTLARSLYHCWLLHGRLCLVEKPTKKHYSFEIKKEVVDRFLAGETRMNLAKEFKLSSPQQVKDWVSKWHKRR,not soluble
